Data set [1] is described as follows: circular dichroism. The following applies: 50 mM phosphate buffer; pH 7; 20 °C; 100 uM. Background: Circular dichroism is widely used to follow secondary structure.
Data set [2] can be described thus: Circular dichroism, determination of alpha helical content. The format is physicochemical. The method, then: CD experiments were carried out using a Jasco J815 spectropolarimeter. Spectra were recorded with 100 μM of peptides dissolved in phosphate buffer 50 mM, pH 7, using a 1 mm pathlength CD cuvette at 20 °C, over a wavelength range of 190-260 nm. Continuous scanning mode was used, with a response of 1.0 s with 0.1 nm steps and a bandwidth of 2 nm. The signal to noise ratio was improved by acquiring each spectrum over an average of two scans. Baseline was corrected by subtracting the background from the sample spectrum.
Alpha helical content was determined using the following equation: % Helix = ([θ])obs * 100)/(-39500 * (1-2.57/n), where ([θ])obs is the mean residue ellipticity at 222 nm and n the number of peptide bonds.

Data set [3] concerns the target C4D peptide derived from the alpha 5 helix of cyclin D1 (Homo sapiens, UniProt P24385). The data set can be described thus: Fluorescence titration of TP2-Rho-labelled C4D peptide with CDK4 C helix-derived peptides. The following applies: 200 nM TP2-Rho labelled C4D peptide, PBS, 30 °C, average of n = 3 to 5 ± SD. The format is binding. Here is the method: TP2-Rho-labelled peptides: peptides were labelled on a unique cysteine residue with a five-fold molar excess of TP2-Rho-maleimide overnight, and then purified from free dye on NAP-5 columns (GE Healthcare), as described previously.
(§1) Fluorescence titration assays were performed in 96-well plates in a thermostated chamber (Clariostar spectrofluorimeter, BMG) at 30 °C in 200 μL phosphate buffer saline using 200 nM fluorescently-labelled peptides or proteins. The fluorescence emission intensity of TP2-Rho-labelled peptides was recorded at 614 nm following excitation at 510 nm. The fluorescence emission intensity of mant-ATP was measured at […]. Data analysis was performed using the GraFit Software (Erathicus Ltd) and curve fitting was performed using a quadratic equation, as described previously. Experiments were performed in triplicate, and Kd values represent the average calculated for n = 3 to 5 experiments, together with standard deviation.

Data set [4] has as its system A549 cells. The data set can be described thus: cells. Type of data set: cell-based, human. The following applies: 48 hours, crystal violet, at least two independent experiments (n=4/experiment) ± SD, Grafit; read-out: IC50 A549 cell proliferation. The method, then:
Non-small cell lung cancer A549, H358 and PC9 cell lines used in this study. Cell culture media, serum and antibiotics were purchased from Life Technologies. All cell lines were cultured in RPMI + Glutamax supplemented with 10% FCS, 100 units/mL penicillin (G sodium salt) and 100 µg/mL streptomycin at 37 °C in an atmosphere containing 5% CO2. […] Stock solutions of drugs were prepared in DMSO and freshly diluted in PBS to the desired concentration prior to use, then added onto unsynchronized cells cultured to subconfluency (60-70%), which were then further incubated for 24, 48 or 72 h. Cell proliferation was determined by crystal violet assay following treatment with drugs. Cells were washed with PBS, fixed with 3.7% formaldehyde for 10 min and then incubated with 0.1% crystal violet dye for 30 min. After rinsing, crystals were dissolved in 10% acetic acid and viability was determined by measuring absorbance at 595 nm.

On the set-up of data set [5]: species or system mice. The note with it: mouse, in vivo, iv.
Details of data set [6]: species or system mice. The following applies: mouse, in vivo. The method, then: Five weeks after the inoculation of H358-Luc cells, when bioluminescent orthotopic tumours were detected, nude mice were randomly divided into 6 groups. Mice were treated with vehicle (control, n = 14), Abemaciclib (n = 10), or P2-short administered intravenously (n = 10) or intrapulmonary (n = 10), or treated with a combination of Abemaciclib and P2-short (intravenous administration of P2-short, n = 10; intrapulmonary administration of P2-short, n = 10). Mice were daily orally treated for three weeks with 10 mg/kg Abemaciclib. P2-short was either administered via the tail vein three times a week for three weeks under anesthesia (isoflurane/air 4% for induction and 1.5% thereafter) with 200 μL at 0.9 mg/kg, or administered intrapulmonary two times a week for three weeks under anesthesia with 50 μL at 0.45 mg/kg. Intrapulmonary administration of P2-short was performed using a catheter connected to a FMJ-250-high-pressure syringe (Penn-Centur, Inc) and introduced into the trachea of the animals using a dedicated laryngoscope. Mice were observed and weighed three times a week. Tumour growth was followed by in vivo bioluminescence imaging (IVIS Kinetic). After 3 weeks, mice were sacrificed, and blood samples were collected by cardiac puncture for biochemistry analysis ([…]). Lungs were collected for immunohistochemistry analyses. […]

In data set [7] the target is TP2-Rho-labelled CDK4 C helix peptide (unstapled) (human). The data set can be described thus: other fluorescence titration; 200 nM TP2-Rho-labelled peptide titrated with GST-cyclins or GST; 96-well plates, 30 °C, 200 μL phosphate buffer saline; quadratic fit; average Kd of n = 3 to 5 experiments.
Data set [8] concerns the target T1, CDK4/cyclin D1 (Homo sapiens, UniProt P11802).
T1 construct: GST (N); made in house; host or cells: E. coli
The data set can be described thus: Fluorescence titration of mant-ATP with CDK4/cyclin D1 with or without P2short. The format is binding. The note with it: 200 nM mant-ATP. Here is the method:
Recombinant GST-CDK4 and GST-cyclin D1 were expressed in E. coli by IPTG induction and purified by FPLC chromatography as described previously.
as §1

Data set [9] addresses GST-cyclin A (UniProt P20248 1-432). The data set can be described thus: other fluorescence titration; 200 nM TP2-Rho-labelled peptide titrated with GST-cyclins or GST; 96-well plates, 30 °C, 200 μL phosphate buffer saline; quadratic fit; average Kd of n = 3 to 5 experiments. The note with it: both partners purified.
For data set [10], the target named is GST-cyclin E (UniProt P24864 1-410). The data set is described as above. The note with it: both partners purified.
In data set [11] the target is T2, GST-cyclin Y (UniProt Q8ND76 1-341).
T2 construct: cyclin Y; source: E. coli BL21, purified (GSTrap HP, desalting column)
T2 sequence (Q8ND76 whole entry): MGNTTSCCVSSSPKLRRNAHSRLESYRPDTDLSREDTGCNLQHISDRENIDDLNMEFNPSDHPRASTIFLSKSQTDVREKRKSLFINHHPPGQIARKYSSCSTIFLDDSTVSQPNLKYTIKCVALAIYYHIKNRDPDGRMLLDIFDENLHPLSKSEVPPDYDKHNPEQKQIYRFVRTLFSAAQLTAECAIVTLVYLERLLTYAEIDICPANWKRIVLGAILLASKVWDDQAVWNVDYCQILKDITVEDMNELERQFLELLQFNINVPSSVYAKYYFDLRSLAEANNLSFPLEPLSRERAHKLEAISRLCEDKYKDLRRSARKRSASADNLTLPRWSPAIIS
The data set is described as above. The following applies: both partners purified.

Data set [12] concerns the target T3, GST-cyclin D1 (UniProt P24385 1-295).
T3 construct: cyclin D1; also called recombinant cyclin; source: E. coli, IPTG induction, purified by FPLC chromatography
Described as above. The following applies: both partners purified.

This is an account of results in paper PMC7019173, “Stapled peptide targeting the CDK4/Cyclin D interface combined with Abemaciclib inhibits KRAS mutant lung cancer growth” (Theranostics, 2020).

Like-named read-outs stand apart in the source and are kept apart here. Where a SMILES comes first, the peptide text is derived from it. Bridges are numbered along the chain shown (N, C = ends). [ ]: non-standard residue; d: D form. S5 = C=CCCC[C@](C)(N)C(=O)O; TP2‑Rho = not defined here

T1 sequence (P11802 whole entry): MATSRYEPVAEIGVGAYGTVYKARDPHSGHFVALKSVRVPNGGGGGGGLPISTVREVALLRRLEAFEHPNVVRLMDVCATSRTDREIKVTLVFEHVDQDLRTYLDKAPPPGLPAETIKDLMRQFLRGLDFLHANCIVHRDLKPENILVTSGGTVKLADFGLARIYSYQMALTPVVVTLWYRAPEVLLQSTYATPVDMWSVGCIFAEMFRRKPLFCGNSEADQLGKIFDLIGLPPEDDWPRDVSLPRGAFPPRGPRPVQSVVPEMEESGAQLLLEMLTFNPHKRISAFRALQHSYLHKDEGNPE
T1 sequence (P24385 whole entry partner): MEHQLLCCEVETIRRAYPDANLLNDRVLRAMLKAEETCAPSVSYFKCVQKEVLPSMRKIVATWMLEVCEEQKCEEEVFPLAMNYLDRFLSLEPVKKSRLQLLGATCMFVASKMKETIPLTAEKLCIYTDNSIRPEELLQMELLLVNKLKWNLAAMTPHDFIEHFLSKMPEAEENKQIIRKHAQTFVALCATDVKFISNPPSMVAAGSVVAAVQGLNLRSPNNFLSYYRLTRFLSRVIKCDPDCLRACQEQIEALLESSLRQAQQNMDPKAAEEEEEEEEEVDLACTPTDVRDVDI
T3 sequence (P24385 whole entry): as the sequence (P24385 whole entry partner) above

`CC(=O)N[C@@H](CS)C(=O)N[C@@H](C)C(=O)N1CCC[C@H]1C(=O)N[C@@H](C)C(=O)N[C@@H](CO)C(=O)N[C@H](C(=O)N[C@@H](C)C(=O)N[C@@H](C)C(=O)N[C@@]1(C)CCCC=CCCC[C@@](C)(C(=O)N[C@@H](C)C(=O)N[C@@H](CCCNC(=N)N)C(=O)N[C@@H](CC(C)C)C(N)=O)NC(=O)[C@H](CC(C)C)NC(=O)[C@H](C)NC(=O)[C@H](CCCCN)NC1=O)[C@@H](C)O` (Ac-CAPASTAA[S5]KAL[S5]ARL-NH2; staple 9-13) returned a helicity in [1] of 34%.

`CC[C@H](C)[C@H](NC(=O)[C@@H]1CCCN1C(=O)[C@H](CC(C)C)NC(C)=O)C(=O)N[C@@H](CO)C(=O)N[C@H](C(=O)N[C@H](C(=O)N[C@@H](CCCNC(=N)N)C(=O)N[C@@H](CCC(=O)O)C(=O)N[C@H](C(=O)N[C@@H](C)C(=O)N[C@@H](CC(C)C)C(=O)N[C@@H](CC(C)C)C(=O)N[C@@H](CCCNC(=N)N)C(=O)N[C@@H](CCCNC(=N)N)C(=O)N[C@@H](CC(C)C)C(N)=O)C(C)C)C(C)C)[C@@H](C)O` [CDK4 C peptide short] (Ac-LPISTVREVALLRRL-NH2): the helicity in data set [1] was 14%. In data set [2] (CD, 100 μM peptide in phosphate buffer 50 mM, pH 7, 20 °C, from mean residue ellipticity at 222 nm), the “% helix (alpha helical content)” value was found to be 14%. Further, in data set [2] (phosphate buffer), the “conformation in solution (CD)” value was “disordered in solution”.

For the molecule `CC[C@H](C)[C@H](NC(=O)[C@@H]1CCCN1C(=O)[C@H](CC(C)C)NC(=O)CNC(C)=O)C(=O)N[C@@]1(C)CCCC=CCCC[C@@](C)(C(=O)N[C@H](C(=O)N[C@@H](C)C(=O)N[C@@H](CC(C)C)C(=O)N[C@@H](CC(C)C)C(=O)N[C@@H](CCCNC(=N)N)C(=O)N[C@@H](CCCNC(=N)N)C(=O)N[C@@H](CC(C)C)C(=O)N[C@@H](CCC(=O)O)C(=O)N[C@@H](C)C(=O)N[C@@H](Cc2ccccc2)C(=O)N[C@@H](CCC(=O)O)C(N)=O)C(C)C)NC(=O)[C@H](CCCNC(=N)N)NC(=O)[C@H](C(C)C)NC(=O)[C@H]([C@@H](C)O)NC1=O` [P1] (Ac-GLPI[S5]TVR[S5]VALLRRLEAFE-NH2; staple 5-9), in data set [1], the helicity was 16%. Further, the Kd in [3] turned out to be 140 ± 77 nM.

In data set [1], `CC[C@H](C)[C@H](NC(=O)[C@@H]1CCCN1C(=O)[C@H](CC(C)C)NC(=O)CNC(C)=O)C(=O)N[C@@H](CO)C(=O)N[C@H](C(=O)N[C@H](C(=O)N[C@@H](CCCNC(=N)N)C(=O)N[C@@]1(C)CCCC=CCCC[C@@](C)(C(=O)N[C@@H](CCCNC(=N)N)C(=O)N[C@@H](CCCNC(=N)N)C(=O)N[C@@H](CC(C)C)C(=O)N[C@@H](CCC(=O)O)C(=O)N[C@@H](C)C(=O)N[C@@H](Cc2ccccc2)C(=O)N[C@@H](CCC(=O)O)C(N)=O)NC(=O)[C@H](CC(C)C)NC(=O)[C@H](C)NC(=O)[C@H](C(C)C)NC1=O)C(C)C)[C@@H](C)O` [P2] (Ac-GLPISTVR[S5]VAL[S5]RRLEAFE-NH2; staple 9-13) yielded a helicity of 55%. Also, the Kd in data set [3] came out at 245 ± 84 nM.

`CC[C@H](C)[C@H](NC(=O)[C@@H]1CCCN1C(=O)[C@H](CC(C)C)NC(=O)[C@H](C)N)C(=O)N[C@@H](CO)C(=O)N[C@H](C(=O)N[C@H](C(=O)N[C@@H](CCCNC(=N)N)C(=O)N[C@@]1(C)CCCC=CCCC[C@@](C)(C(=O)N[C@@H](CCCNC(=N)N)C(=O)N[C@@H](CCCNC(=N)N)C(=O)N[C@@H](CC(C)C)C(N)=O)NC(=O)[C@H](CC(C)C)NC(=O)[C@H](C)NC(=O)[C@H](C(C)C)NC1=O)C(C)C)[C@@H](C)O` [P2shortA] (H-ALPISTVR[S5]VAL[S5]RRL-NH2; staple 9-13): the helicity in [1] was determined as 74%. In addition, the IC50 in data set [4] was determined as 10800 ± 260 nM. In [5], this molecule yielded a blood distribution half-life of 0.4 h and a blood elimination half-life of 39 h. Besides, in data set [6], the “lung damage by HE staining” value is “did not reveal any lung damage”.

`CC[C@H](C)[C@H](NC(=O)[C@@H]1CCCN1C(=O)[C@H](CC(C)C)NC(=O)[C@H](CS)NC(C)=O)C(=O)N[C@@H](CO)C(=O)N[C@H](C(=O)N[C@H](C(=O)N[C@@H](CCCNC(=N)N)C(=O)N[C@@]1(C)CCCC=CCCC[C@@](C)(C(=O)N[C@@H](CCCNC(=N)N)C(=O)N[C@@H](CCCNC(=N)N)C(=O)N[C@@H](CC(C)C)C(N)=O)NC(=O)[C@H](CC(C)C)NC(=O)[C@H](C)NC(=O)[C@H](C(C)C)NC1=O)C(C)C)[C@@H](C)O` [P2short] (Ac-CLPISTVR[S5]VAL[S5]RRL-NH2; staple 9-13) displayed a helicity in [1] of 77%. Besides, the Kd in [3] turned out to be 56 ± 19 nM.

The molecule `CC[C@H](C)[C@H](NC(=O)[C@@H]1CCCN1C(=O)[C@H](CC(C)C)NC(=O)CNC(C)=O)C(=O)N[C@@]1(C)CCCC=CCCC[C@@](C)(C(=O)N[C@H](C(=O)N[C@@H](C)C(=O)N[C@@H](CC(C)C)C(=O)N[C@@]2(C)CCCC=CCCC[C@@](C)(C(=O)N[C@@H](C)C(=O)N[C@@H](Cc3ccccc3)C(=O)N[C@@H](CCC(=O)O)C(N)=O)NC(=O)[C@H](CC(C)C)NC(=O)[C@H](CCCNC(=N)N)NC(=O)[C@H](CCCNC(=N)N)NC2=O)C(C)C)NC(=O)[C@H](CCCNC(=N)N)NC(=O)[C@H](C(C)C)NC(=O)[C@H]([C@@H](C)O)NC1=O` [P4] (Ac-GLPI[S5]TVR[S5]VAL[S5]RRL[S5]AFE-NH2; staple 5-9, 13-17) registered a helicity in data set [1] of 26%. Besides, in [3], the Kd worked out at 109 ± 29 nM.

As to “GST-cyclin D1 (from UniProt P24385 1-295) (natural protein)”, the Kd in data set [7] is 43 nM.

Take mant-ATP: the Kd in data set [8] (P2short 2-fold excess, read-out: Kd of mant-ATP for CDK4/cyclin D1 in the presence of P2short) came out at 5 ± 2 nM; in data set [8] (no peptide, read-out: Kd of mant-ATP for CDK4/cyclin D1 complex alone), 27 ± 13 nM.

B1: TP2-Rho-labelled P2short stapled peptide (peptide)
chain: Ac-C(TP2‑Rho)GLPISTVR[S5]VAL[S5]RRL-NH2
modifications: staple 10-14; reading uncertain
Consider B1, for which the Kd in data set [9] came to 25 nM; in data set [10] it was 10 nM; in data set [11], 47 nM; in [12] it was 12 nM.
